The target of assay [1] is T1, GST-Bcl-2 protein (UniProt P10415 1-205, limits assumed).
T1 construct: not shown: GST tag
In words: fluorescence polarization competition; 30 nM Flu-SEQ ID NO:30, 0.5 µM GST-Bcl-2, conjugate at 0.005-0.32 µM, 30 minutes at 37° C. For orientation: Fluorescence polarisation rises when a labelled molecule tumbles more slowly, as on binding a larger partner.

In assay [2] the target is Bax (UniProt Q07812 1-171, limits assumed). As to the kind of experiment: fluorescence polarization, FIG. 2: C.
Bax, sequence (Q07812 1-171 limits assumed): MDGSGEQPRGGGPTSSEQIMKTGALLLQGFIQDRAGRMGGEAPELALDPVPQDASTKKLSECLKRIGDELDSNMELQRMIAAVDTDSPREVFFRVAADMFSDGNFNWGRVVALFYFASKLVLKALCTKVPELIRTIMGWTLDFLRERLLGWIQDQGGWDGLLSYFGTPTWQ
Assay [3] addresses CD4 (UniProt P01730 26-396, limits assumed). As to the kind of experiment: fluorescence polarization, FIG. 2: E.
Assay [4] deals with T2, SH3 domain of the Bcr-Abl oncoprotein (UniProt P00519 61-121).
T2 construct: domain: SH3 domain; also called Bcr-Abl SH3
T2 sequence (P00519 61-121 limits assumed): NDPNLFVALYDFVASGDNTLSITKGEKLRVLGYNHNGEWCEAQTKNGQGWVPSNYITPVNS
In words: fluorescence polarization, FIG. 2: D.

No end group written: not given here. *: point of attachment. Decanoyl = CCCCCCCCCC(=O)*

T1 sequence (P10415 1-205 limits assumed): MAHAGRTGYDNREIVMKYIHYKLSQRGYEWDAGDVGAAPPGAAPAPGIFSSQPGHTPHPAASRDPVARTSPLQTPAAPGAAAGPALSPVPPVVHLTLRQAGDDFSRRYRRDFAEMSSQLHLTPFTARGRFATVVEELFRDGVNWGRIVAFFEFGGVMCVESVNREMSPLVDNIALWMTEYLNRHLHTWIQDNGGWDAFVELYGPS

Usually EC50 stands for the concentration at which the effect is half-maximal. Decanoyl-KNLWAAQRYGRELRRMSDEFEGSFKGL (also called decyl-K1285) [decyl-SEQ ID NO:56 (CH3(CH2)8COHN-KNLWAAQRYGRELRRMSDEFEGSFKGL)] returned a 50% effective concentration (EC50) in assay [1] of 130 nM.

B1: fluorescein-labeled peptide SEQ ID NO:30 (Flu-SEQ ID NO:30) (peptide)
peptide: GQVGRQLAIIGDDINR
modifications: also: fluorescein label, site of attachment not given here
notes: Synthetic peptide labeled with fluorescein; tracer of the fluorescence polarization assay; also called fluoresceinated BakBH3 peptide; Flu-SQ30
As for B1, the binding result in assay [2], in assay [3] and in assay [4] was “no binding” throughout.
